Reference: paper doi:10.1101/2024.07.24.604858 (bioRxiv, 2024)
Changes are numbered by the printed parent chain. In names and notes the source's numbering stands.

B1: mAb 0786 wt (antibody, V domains shown)
VH: EVQLVESGGGLVQPGRSLRLSCTTSGFTFGDFAMSWVRQAPGKGLEWVGFIRSKANGGSTEYAASVKGRFTISRDDSKSIAYLQMDSLKTEDTAVYYCCRVWIQLWPLDYWGQGTLVTVSS
VL: EIVLTQSPGTLSLSPGERATLSCRASQSIGSSYLAWYQLKPGQAPRLLIYGASSRATGIPDRFSGSGSGTDFTLIISRLEPEDFAVYFCQQYGRSPWTFGQGTKVEIK
B2: mAb 0786 with Arg introduced at H.59 (antibody, V domains shown)
VH: B1 VH with S59R
VL: B1 VL
B3: mAb 0786 with H.A63P (antibody, V domains shown)
VH: B1 VH with A63P
VL: B1 VL
B4: mAb 0786 with H.N56 reverted to the GL Tyr (antibody, V domains shown)
VH: B1 VH with N56Y
VL: B1 VL

Molecular target: T1, PfCSP central repeat peptide NANP_(20aa) (Plasmodium falciparum (repeat peptide, …))
T1 chain: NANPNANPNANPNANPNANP
Assay: SPR

**Q.** Does B1 bind?
**A.** Result: binds

**Q.** Does B2 bind?
**A.** Result: binds

**Q.** Does B3 bind?
**A.** Result: binds

**Q.** Does B4 bind?
**A.** Result: binds

Molecular target: T2, PfCSP N-junction peptide NPDP_(20aa) (Plasmodium falciparum (matches 3D7 …))
T2 chain: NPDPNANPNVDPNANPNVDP
Assay: SPR

**Q.** Does B1 bind?
**A.** Result: binds

**Q.** Does B2 bind?
**A.** Result: binds

**Q.** Does B3 bind?
**A.** Result: binds

**Q.** Does B4 bind?
**A.** Result: binds
